Key:
[1] = target: Fc receptors on primary human blood cells: granulocytes (CD66+); assay: flow cytometry on human granulocytes (CD66+)
[2] = target: Fc receptors on primary human blood cells: NK cells (CD16+CD56+); assay: flow cytometry on human blood cells (Example 7)
[3] = target: Fc receptors on primary human blood cells: granulocytes (CD66+); assay: flow cytometry on human blood cells (Example 7)

percent of granulocytes bound [1] [%]	percent of NK cells bound [2] [%]	percent of granulocytes bound [3] [%]	Substance
20	–	–	control antibody having an Fc glycosylation pattern similar to that of Fuc- cetugex (including a similarly low fucosylation)
–	< 5	< 5	Fuc+ cetuximab (high fucose anti-EGFR antibody cetuximab produced in mouse myeloma cell line SP2/0)
100	–	–	Fuc- cetuximab (low fucosylation variant of cetuximab; reduced fucose anti-EGFR antibody according to the invention)
